Laboratory results: the supplement of paper PMC12338614
± gives the uncertainty stated by the source.

B1: library; numbered along this chain (parent)
chain: MEVVDPQQLGMFTEGELMSVGMDTFIHRIDSTEVIYQPRRKRAKLIGKYLMGDLLGEGSYGKVKEVLDSETLCRRAVKILKKKKLRRIPNGEANVKKEIQLLRRLRHKNVIQLVDVLYNEEKQKMYMVMEYCVCGMQEMLDSVPEKRFPVCQAHGYFCQLIDGLEYLHSQGIVHKDIKPGNLLLTTGGTLKISDLGVAEALHPFAADDTCRTSQGSPAFQPPEIANGLDTFSGFKVDIWSAGVTLYNITTGLYPFEGDNIYKLFENIGKGSYAIPGDCGPPLSDLLKGMLEYEPAKRFSIRQIRQHSWFRKKHPPAEAPVPIPPSPDTKDRWRSMTVVPYLEDLHGADEDEDLFDIEDDIIYTQDFTVPGQVPEEEASHNGQRRGLPKAVCMNGTEAAQLSTKSRAEGRAPNPARKACSASSKIRRLSACKQQ

Variants of: B1
Test: STK11 functional score (HeLa growth suppression), rescaled enrichment; synonymous median = 1, nonsense median = 0 (normalised score)
Conditions: with HeLa; variant type: missense
Method in brief: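 In HeLa, Bxb1 integrated POPCode codon-randomised libraries of codon-optimised STK11 at an AAVS1 landing pad; three regions were each transfected three times. Integrants, marked as BFP-negative and mCherry-positive, were FACS-sorted 4–5 days after electroporation and expanded for about two weeks before tiled gDNA amplicons were sequenced on NextSeq (~2 million reads per tile). Each functional score is a post/pre-selection log ratio corrected to wild type, rescaled to the synonymous and nonsense medians, and merged across codons and replicate transfections, with error estimated by bootstrapping.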

| Variant | STK11 functional score |
| --- | --- |
| MEVVDPQQLGMFTEGELMSVGMDTFIHRIDSTEVIYQPRRKRAKLIGKYLMGDLLGEGSYGKVKEVLDSETLCRRAVKILKKKKLRRIPNGEANVKKEIQLLRRLRHKNVIQLVDVLYNEEKQKMYEVMEYCVCGMQEMLDSVPEKRFPVCQAHGYFCQLIDGLEYLHSQGIVHKDIKPGNLLLTTGGTLKISDLGVAEALHPFAADDTCRTSQGSPAFQPPEIANGLDTFSGFKVDIWSAGVTLYNITTGLYPFEGDNIYKLFENIGKGSYAIPGDCGPPLSDLLKGMLEYEPAKRFSIRQIRQHSWFRKKHPPAEAPVPIPPSPDTKDRWRSMTVVPYLEDLHGADEDEDLFDIEDDIIYTQDFTVPGQVPEEEASHNGQRRGLPKAVCMNGTEAAQLSTKSRAEGRAPNPARKACSASSKIRRLSACKQQ [M127E] | 1.59 ± 0.1 |
| MEVVDPQQLGMFTEGELMSVGMDTFIHRIDSTEVIYQPRRKRAKLIGKYLMGDLLGEGSYGKVKEVLDSETLCRRAVKILKKKKLRRIPNGEANVKKEIQLLRRLRHKNVIQLVDVLYNEEKQKMYMVMEYPVCGMQEMLDSVPEKRFPVCQAHGYFCQLIDGLEYLHSQGIVHKDIKPGNLLLTTGGTLKISDLGVAEALHPFAADDTCRTSQGSPAFQPPEIANGLDTFSGFKVDIWSAGVTLYNITTGLYPFEGDNIYKLFENIGKGSYAIPGDCGPPLSDLLKGMLEYEPAKRFSIRQIRQHSWFRKKHPPAEAPVPIPPSPDTKDRWRSMTVVPYLEDLHGADEDEDLFDIEDDIIYTQDFTVPGQVPEEEASHNGQRRGLPKAVCMNGTEAAQLSTKSRAEGRAPNPARKACSASSKIRRLSACKQQ [C132P] | -0.178 ± 0.083 |
| MEVVDPQQLGMFTEGELMSVGMDTFIHRIDSTEVIYQPRRKRAKLIGKYLMGDLLGEGSYGKVKEVLDSETLCRRAVKILKKKKLRRIPNGEANVKKEIQLLRRLRHKNVIQLVDVLYNEEKQKMYMVMEYCVCGMQEMLDSVPEKRFPVCQAHGYFCQLIDGLEYLHSQGIVHKDIKPGNLLLTTGGTLKISDLGVAEALHPFAADDTCRTSQGSPAFQPPEIANGLDTFSGFKVDIWSAGVTLYNITTGLYPFEGDNIYKLFENIGKGSYAIPGDCGPPLSDLLKGMLEYEPAKRFSIRQIRQHSWFRKKHPPAEAPVPIPPSPDTKDRWRSMTVVPYLEDLHGADEDGDLFDIEDDIIYTQDFTVPGQVPEEEASHNGQRRGLPKAVCMNGTEAAQLSTKSRAEGRAPNPARKACSASSKIRRLSACKQQ [E351G] | 1.33 ± 0.12 |
| MEVVDPQQLGMFTEGELMSVGMDTFIHRIDSTEVIYQPRRKRAKLIGKYLMGDLLGEGSYGKVKEVLDSETLCRRAVKILKKKKLRRIPNGEANVKKEIQLLRRLRHKNVIQLVDVLYNEEKQKMYMVMEYCVCGMQEMLDSVPEKRFPVCQAHGYFCQLIDGLEYLHSQGIVHKDIKPGNLLLTTGGTLKNSDLGVAEALHPFAADDTCRTSQGSPAFQPPEIANGLDTFSGFKVDIWSAGVTLYNITTGLYPFEGDNIYKLFENIGKGSYAIPGDCGPPLSDLLKGMLEYEPAKRFSIRQIRQHSWFRKKHPPAEAPVPIPPSPDTKDRWRSMTVVPYLEDLHGADEDEDLFDIEDDIIYTQDFTVPGQVPEEEASHNGQRRGLPKAVCMNGTEAAQLSTKSRAEGRAPNPARKACSASSKIRRLSACKQQ [I192N] | 1.23 ± 0.67 |
| MEVVDPQQLGMFTEGELMSVGMDTFIHRIDSTEVIYQPRRKRAKLIGKYLMGDLLGEGSYGKVKEVLDSETLCRRAVKILKKKKLRRIPNGEANVKKEIQLLRRLRHKNVIQLVDVLYNEEKQKMYMVMEYCVCGMQEMLWSVPEKRFPVCQAHGYFCQLIDGLEYLHSQGIVHKDIKPGNLLLTTGGTLKISDLGVAEALHPFAADDTCRTSQGSPAFQPPEIANGLDTFSGFKVDIWSAGVTLYNITTGLYPFEGDNIYKLFENIGKGSYAIPGDCGPPLSDLLKGMLEYEPAKRFSIRQIRQHSWFRKKHPPAEAPVPIPPSPDTKDRWRSMTVVPYLEDLHGADEDEDLFDIEDDIIYTQDFTVPGQVPEEEASHNGQRRGLPKAVCMNGTEAAQLSTKSRAEGRAPNPARKACSASSKIRRLSACKQQ [D141W] | 0.69 ± 0.12 |
| MEVVDPQQLGMFTEGELMSVGMDTFIHRIDSTEVIYQPRRKRAKLIGKYLMGDLLGEGSYGKVKEVLDSETLCRRAVKILKKKKLRRIPNGEANVKKEIQLLRRLRHKNVIQLVDVLYNEEKQKMYMVMEYCVCGMQEMLDSVPEKRFPVCQAHGYFCQLIDGLEYLHSQGIVHKDIKPGNLLLTTGGTLKISDLGVAEALHPFAADDTCRTSQGSPAFGPPEIANGLDTFSGFKVDIWSAGVTLYNITTGLYPFEGDNIYKLFENIGKGSYAIPGDCGPPLSDLLKGMLEYEPAKRFSIRQIRQHSWFRKKHPPAEAPVPIPPSPDTKDRWRSMTVVPYLEDLHGADEDEDLFDIEDDIIYTQDFTVPGQVPEEEASHNGQRRGLPKAVCMNGTEAAQLSTKSRAEGRAPNPARKACSASSKIRRLSACKQQ [Q220G] | 0.849 ± 0.17 |
| MEVVDPQQLGMFTEGELMSVGMDTFIHRIDSTEVIYQPRRKRAKLIGKYLMGDLLGEGSYGKVKEVLDSETLCRRAVKILKKKKLRRIPNGEANVKKEIQLLRRLRHKNVIQLVDVLYNEEKQKMYMVMEYCVCGMQEMLDSVPEKRFPVCQAHGYFCQLIDGLEYLHSQGIVHKDIKPGNLLLTTGGTLKISDLGVAEALHPFAADDTCRTSQGSPAFQPPEIANGLDTFSGFKVDIWSAGVTLYNITTGLYPFEGDNIYKLFENIGKGSYACPGDCGPPLSDLLKGMLEYEPAKRFSIRQIRQHSWFRKKHPPAEAPVPIPPSPDTKDRWRSMTVVPYLEDLHGADEDEDLFDIEDDIIYTQDFTVPGQVPEEEASHNGQRRGLPKAVCMNGTEAAQLSTKSRAEGRAPNPARKACSASSKIRRLSACKQQ [I274C] | 0.973 ± 0.19 |
